# Patent publication US20190338026A1 (University of Texas, published 2019)
# Columns and labels:
# [1] = target: T1, LAIR1 on LAIR1 reporter cells (human, UniProt Q6GTX8 22-165, limits assumed); experiment: cell-based or functional assay
# T1 chain: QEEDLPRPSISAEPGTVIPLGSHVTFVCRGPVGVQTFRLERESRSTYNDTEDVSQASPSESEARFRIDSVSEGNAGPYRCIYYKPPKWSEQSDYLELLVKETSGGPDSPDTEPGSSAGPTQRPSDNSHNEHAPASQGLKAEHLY
# [2] = target: T2, human LAIR1 extracellular domain (ECD) protein with 6 HIS tag at the C-terminus (human, UniProt Q6GTX8 22-165); experiment: ELISA, LAIR1 ECD coated, mAb titrated, anti-rabbit HRP
# T2 construct: Produced recombinantly in HEK293 cells; the whole entry is named here; also called LAIR1 ECD; LAIR1-ECD
# T2 chain: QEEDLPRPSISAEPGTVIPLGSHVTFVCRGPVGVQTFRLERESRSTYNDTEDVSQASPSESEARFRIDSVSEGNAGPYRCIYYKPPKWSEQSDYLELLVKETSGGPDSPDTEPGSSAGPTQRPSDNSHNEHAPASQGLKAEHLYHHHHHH
# Protocol: (§1) The inventors then used a concentration titration (0-10 μg/ml) by ELISA to determine the LAIR1 monoclonal antibody (mAbs) binding to human LAIR1 ECD. […] For FIGS. 2-39, X axis indicates the antibody concentrations and Y-axis is binding signals, measured as OD (450 nm). To perform the ELISA assay, LAIR1 ECD recombinant protein was coated on high absorption 96-well plates. Serial diluted (3-fold) LAIR1 mAb was added to the coated/blocked plates and detected using goat anti-rabbit F(ab′)2 conjugated HRP as secondary antibody. All assays were repeated 3 times and the titration curves were fitted using 4-parameter fitting curve using the GraphPad software for EC₅₀ estimation.
# (§2) Serial dilutions of the LAIR1 monoclonal antibodies (IgGs or scFvs fragments), starting from […] and 3-fold titration down for 12 steps, were added to the 96-well plate for binding by incubating 45 minutes at 37° C. with a cover on the assay plate. Then the plates were washed with PBS containing Tween 20 (0.05% concentration) for 3 times and PBS one time. […] Detection was conducted by adding HRP substrate, TMB (ThermoFisher) for 10 minutes, and stopped by adding 50 μl/well of 2N H2504. The plates were read for absorbance at 450 nm using a plate reader (SpectraMax M4, Molecular Devices). Data were collected and graphed using a 4-parameter fitting curve with GrapPad Prism 7 software for EC₅₀ calculation.
# [3] = target: T2, human LAIR1 extracellular domain (ECD) …; experiment: ELISA, LAIR1 ECD coated
# Protocol: as §1, §2
# [4] = target: T1, LAIR1 on LAIR1 reporter cells; experiment: cell-based or functional assay
# [5] = target: T1, LAIR1 on LAIR1 reporter cells; experiment: cell-based or functional assay
Binder,"GFP+% of LAIR1 reporter cells, collagen I coated, soluble Ab [1]",EC50 [2],EC50 (read off the curve) [3],"GFP+% of LAIR1 reporter cells, collagen I coated, soluble Ab and K562 cells [4]","GFP+ of LAIR1 reporter cells, Collagen I coated [5]","GFP+ of LAIR1 reporter cells, Collagen I coated + K562 [5]"
"LA-117 (antibody, V domains shown, Rabbit monoclonal IgG) VH: QSVKESGGDLVKPGASLTLACTASGFSFSDGYYMCWVRQAPGKGLEWIGCIHSSSGSIYYASWAKGRFTISKTSSTMVTLQMSSLTAADTATYFCARDSESYGYNPCELWGPGTLVTISS VL: ELDLTQTPASVSEAVGGTVTIKCQASQTISNYLAWYQQKPGQRPKLLIYAASSLASGVSSRFRGSRSGTEYTLTITDLECDDAATYYCQCTYYGTTYVGGAFGGGTELEIK",3.19%,0.08 nM,~10 ng/mL,–,–,–
"LA-222 (antibody, V domains shown, Rabbit monoclonal IgG) VH: EQSVEESGGDLVKPGASLTLTCTASGFSFTYWICWVRQAPGKGLEWIACIYAGSSGDTYYASWAKGRFTISKTSSTTVTLQMTSLTAADTATYFCARSPDYVAWGYDLWGPGTRVTVSS VL: ELVLTQTPASVSAAVGGTVTINCQASQSIGTNLVWYQQKPGQPPKLLFYYASTLASGVPSRFRGSRSGTEYTLTISDLECADAATYYCQCIYYGGNYGHTFGGGTEVVVK",0.905%,0.05 nM,~7 ng/mL,0.792%,–,–
"LA-35 (antibody, V domains shown, Rabbit monoclonal IgG; also called mAb LA-35) VH: EQSVKESGGRLVTPGTPLTLTCTVSGIDLSYYSMGWFRQAPGKGLEWIGVISSSDSTYYANWAKGRFTISKTSTTVDLKIAGPTTEDTATYFCARVLANSYNAFNLWGPGSLVTISS VL: ELDLTQTPASVSEPVGGTVTIKCQASQSVGSRLAWYQQKPGQPPKLLIYKASTLASGVPSRFKGSGSGTQFTLTMSDLECADAATYYCQCTNISSAYLGAFGGGTEVEIK",1.1%,0.08 nM,~10 ng/mL,1.13%,–,–
"LA-37 (antibody, V domains shown, Rabbit monoclonal IgG; also called mAb LA-37) VH: EQSLEESGGDLVKPGASLTLTCKASGFSFSSSEFMCWVRQAPGKGLEWIACIYGGLSDDTYFASWAKGRFTISKTSSITVTLQMTSLTAADTATYFCARSCDVNYYGFDPWGPGTLVTISS VL: ELVLTQTPAPVSAAVGDTVTIKCQASQNKGTNLAWYQQKPGQPPKLLIYLSSTLASGVPPRFKGSRSGTEYTLTISDLECADAATYFCQSTYYGSNGLTFGGGTEVEIK",0.86%,0.05 nM,~8 ng/mL,1.08%,–,–
"LA-151 (antibody, V domains shown, Rabbit monoclonal IgG) VH: SSSVEESGGRLVTPGTPLTLTCTVSGFSLGSYAMGWVRQGPGKGLEWIGAVYGTTGYIYFATWAKGRFTISKTSTTVDLKITSPTTEDTATYFCARGYLTDSIANGFGVWGPGTLVTVSS VL: ELDLTQTPASVSEPVGGTVTIKCQASQTITNRYLAWYQQKPGQPPKLLIYQSSKLASGVSSRFKGSGSGTDFTLTISDLECADAATYYCQCTDYGSTYLGTFGGGTEVEIK",0.678%,0.08 nM,~10 ng/mL,1.95%,–,–
"LA-63 (antibody, V domains shown, Rabbit monoclonal IgG; also called mAb LA-63) VH: EQSVEESGGRLVAPGGSLTLTCTVSGFSLSSYAMSWVRQAPGKGLEWIGVMYNSGSAYYASWAKGRFTISRTSTTVDLKVTSLTTEDTATYFCGRGGSNSAWGDDLWGPGTLVTVSS VL: ELDMTQTPASVSEPVGGTVTIKCQASQSISIRYFSWYQQKPGQPPKLLIYGASTLASGVPSRFKGSGSGTDFTLTISDLECADAATYYCQDSNYNSNYFGAFGGGTEVVVK",2.42%,234 nM,–,1.31%,–,–
"LA-252 (antibody, V domains shown, Rabbit monoclonal IgG; Called a potential antagonist antibody) VH: EQSVEESGGRLVTPGTPLTLTCTASGFTISDYHMCWVRQAPGKGLEWIGLIRASHSTAYASWANGRFTISRTSTTVDLKITSPTSEDTATYFCARYGGSGIGCNLWGPGTLVTISS VL: ELVLTQTPASVSEPVGGTVTIKCQASQSIDSNLAWYQQKPGQPPKQLIYAVSNLASGVPSRFKGSGSGTEFTLTISDLECADAASYYCECTYYGNSYVGGFGGGTEVEIK",0.679%,0.05 nM,~8 ng/mL,0.698%,< 5%,< 5%
"LA-155 (antibody, V domains shown, Rabbit monoclonal IgG) VH: EQSLEESGGDLVKPEGSLTLTCTASGFSFNSNYWICWVRQTPGKGLEWIGCIYSGSSGDTYYASWAKGRFTISKTSSTTVTLQMTSLTAADTATYFCARGADYVYWSYGLWGPGTLVTISS VL: ELVLTQTPASVSAAVGGTLTIKCQASETIGTNLAWYQQKPGQPPKLLIYLASYLASGVSSRFKGSRSGTEFTLTISDLDCDDAATYYCQSTHFGNGHTFGGGTEVVVK",0.746%,0.04 nM,~7 ng/mL,0.867%,–,–
"LA-64 (antibody, V domains shown, Rabbit monoclonal IgG; also called mAb LA-64) VH: EQSLESGGGLITPGGTLTLTCTASGFTVTRYYMNWVRQAPGKGLEWIGYIYASSKTYYANWAKGRFTISKTSTTVDLKMTSLTAEDTGTYFCARGGVGNSGLNLDLWGPGTLVTISS VL: ELVLTQTPASVSEPVGGTVTIKCQASQSIGSWLAWYQQKPGQPPKLLIYQASRLASGVSSRFGGSGSGTEFTLTISDLECADAATYYCQQAEYSGDVENTFGGGTEVVVK",1.5%,0.09 nM,~10 ng/mL,2.29%,–,–
"LA-101 (antibody, V domains shown, Rabbit monoclonal IgG) VH: EQSVEESGGRLVTPGTPLTLTCTVSGFSLSSFHMCWVRQAPGKGLEYIGIIYPGGSTGYANWAKGRFTVSKASNTVDLKISSPTTEDTATYFCARVNYGDWINGMDLWGPGTLVTISS VL: ELDMTQTPASVSEPVGGTVTIKCQASQSIGSNLAWYQQKPGQRPKLLIYKASTLASGVPSRFKGSGSGTDFTLTISDLECADAASYYCQQAYWSGNVDNVFGGGTEVEIK",2.92%,0.05 nM,~8 ng/mL,–,–,–
"LA-30 (antibody, V domains shown, Rabbit monoclonal IgG; also called mAb LA-30) VH: EQSVESGGGLVQPEGSLTLTCKASGFDFSRNAICWVRQAPGKGPEWIACYSFSSSATYYASWAKSRFTISKTSSTTVTLQMTSLTAADTATYFCARVDIYGGSRYWGMWGPGTLVTISS VL: ELVMTQTPASVEAAVGGTVTIKCQASQNIGGDLAWYQQKPGQPPKLLIYRASTLESGVPSRFSGSGSGTEFTLTISDLECADAATYYCQDTDIGSGAFGGGTELEIK",1.51%,0.07 nM,~10 ng/mL,1.94%,–,–
"LA-87 (antibody, V domains shown, Rabbit monoclonal IgG; also called mAb LA-87) VH: QSVKESGGRLVTPGGSLTLTCTVSGFSLSNYNIQWVRQAPGKGLEWIGFISPAGNGYYASWAKGRFTISKASSTTVELKMTSLTASDTATYFCARHWDLWGPGTLVTISS VL: ELVLTQTASSVSAAVGGTVTISCQSSQSVYSNYLSWFQQKPGQPPKELVYWTSTLQSGVPSRFSGSGSGTQFTLTISDLECDDAATYYCLGGYSGWFYAFGGGTEVVVK",1.45%,0.06 nM,~10 ng/mL,0.844%,–,–
"LA-95 (antibody, V domains shown, Rabbit monoclonal IgG; also called mAb LA-95) VH: EQSLKESGGRLVTPGGSLTLTCTASGFDINNYNIQWVRQAPGKGLEWIGFISPAGNEYSATWAKGRFTIYKTSSTTVELKMTSLTASDTATYFCARHWDSWGPGTLVTISS VL: ELVMTQTESPVSAAVGGTVTISCQSSQSVYSNRLSWFQQKPGQPPKELVYWTSTLQSGVPSRFSGSGSGTQFTLTISDLECDDAATYYCLGGYSGNIYVFGGGTEVEIK",0.711%,0.04 nM,~7 ng/mL,0.595%,–,–
